The DeepSol protein solubility set

assay: soluble on expression in E. coli; label from the status in PepcDB or PDB records

| Sequence | soluble on expression in E. coli |
| --- | --- |
| MGSDKIHHHHHHMSIFVKTFGGTRVIKDNDIVSARDWPSQKAFALFRYLIFRRNEEVSVEEIYNLFWEDMDDTFAKSNLNTTLHIIRKTTGITSEELFVKGDLCCFFPGGEITIDADIFEECHRNLMKATSDAEREKLLKRMFEIYTGPFLVEDIFAEWVQEIREIYESWYSDVLKELFKLYLSKKDYDAALEMVNAYFQREPYDEDMYYRAIEVLLKKGDITRAKRVYDKLSSHLMEIGIKPRLKFDDFLSKRDSEFMLNGNKAVVVDEKLFERFLFLESRRREKSFVLVEVKLTDKSISTEDVSQRVASQLRKGDVITFSGETIRILFHCPEQRRPTMEKRVVDALEKVGVKKGQYEIS | not soluble |
| MGSDKIHHHHHHMSILEVKNLSHGFGDRAIFEDVSFRLLKGEHIGLVGANGEGKSTFMSIVTGKMLPDEGKVEWSKYVTAGYLDQHSVLAERQSVRDVLRTAFDELFKAEARINDLYMKMAEDGADVDALMEEVGELQDRLESRDFYTLDAKIDEVARALGVMDFGMDTDVTSLSGGQRTKVLLAKLLLEKPDILLLDEPTNYLDAEHIDWLKRYLQNYENAFVLISHDIPFLNDVINIVYHVENQQLTRYSGDYYQFQEVYAMKKSQLEAAYERQQKEIADLKDFVARNKARVATRNMAMSRQKKLDKMDIIELQSEKPKPSFDFKPARTPGRFIFQAKNLQIGYDRPLTKPLNLTFERNQKVAIIGANGIGKTTLLKSLLGIISPIAGEVERGDYLELGYFEQEVEGGNRQTPLEAVWNAFPALNQAEVRAALARCGLTTKHIESQIQVLSGGEQAKVRFCLLMNRENNVLVLDEPTNHLDVDAKDELKRALKEYRGSILMVCHEPDFYEGWIDQIWDFNNLT | not soluble |
| MGSDKIHHHHHHMSISLNTCILILKEHHLLKSSAVQDTVATKMDYVSYDSRDIQTNTLFFCKGAGFRPTYLSMAKSNGANCYVAEQPYPEGKGMHALIVRDVSKAMALLSAAFFRFPQDDLYVVAFTGTKGKTTSAYFLKGMLDQANGGRTALISSVNDVVGPKPEDSFKSSLTTPESLDLFRDMRTAVDNGMTHLVMEVSSQAYKKNRVFGLTYDLGFFLNISPDHIGPNEHPNFADYLHCKLQLMVNSRKCIINAETANFNEVYAAATTTTNPDSIYLFAREDFENPDLDVPIDFRFASQELDMKETRFKLFCATDKAKKLPINGDYTLKMLGDFNESNGTAAIIGAGLAGLNHDQCAKGIRNVTIPGRMQTERTKEHGMVVVDYAHNKASMMALMRFMQNEFNDPKIIVVVGAPGDKGVSRRPGFSESLSAYADKAFLTTDDPGFEDPKSIAEEIDAGIDHSKCDVTIELDRKKAIHDAIASAGPDDVVLICGKGADAFQKIRGVDTPYPSDIVVAQQVINELEGQDEHFRK | not soluble |
| MGSDKIHHHHHHMSISVKSNRALFDLDLLRAIVVVADCGSFTTAAARLHSTQSTISQKVRRLEDMVGHRLLVRGNRDVLPTDAGQTLLGYARHMLALNDQMLEALAGAMVGTTVRLGVPEDFVGGRTTNALSAFSRLHPQVKLEVTSGLCRDLSQAYDNGELDLVLLKQRRNSREGVACWPERLQWIDSARTPAFELDPIPLVTFPPRGLYREDMINAIEGMGRRWRISFTSSSLSGIQAAVADGMGISLLPPRAATGEHRVLGAGQGLPEVDSYEIVIVHRPTADVMVKALAEVMTQLLAGGGI | not soluble |
| MGSDKIHHHHHHMSKFINPFTDYGFKLIFGREVSKDLLIEFLNDLLEGERVITDLTFLNNEQLPDYPEGRGIIYDVYCTTDTGEKIIVEMQNRMQSNFKERSIFYLSRAIVNQGRTGHDWKFEIKAVYGVFLMNFIMDKNIKLRTDVILADKETGELFSEKFRQIFIALPLFKKSEEECETNFERWIYILNNMETLKRLPFKARKAVFEKLEEIADVASMSPKERELYDNSVKVYRDYLVTMDAAEKEGIKKGMKEGMKEGLKKGLEEGLEEGLKKGREEALNIFQTAIDMKKQGIDNQLIAEKTGLPLSLIESLK | not soluble |
| MGSDKIHHHHHHMSKLDAFIQQAVTAMPISGTSLIASLYGDALLQRGGEVWLGSVAALLEGLGFGERFVRTALFRLNKEEWLDVVRIGRRSFYRLSDKGLRLTRRAEHKIYRASAPEWDGTWLLLLSEGLEKNVLADVKKQLLWQGFGALAPSLLASPSQKLADVQSLLHEAGVAENVICFEAHSPLALSRAALRDRVEECWHLTEQNEMYEAFIALFRPLLPLLRDSEPSELTPERCFQIQLLLIHFYRRVVLKDPLLPEELLPAHWAGQTARQLCINIYQRVSPGALAFVSEKGESSVGELPAPGPLYYQRFGGLPGA | not soluble |
| MGSDKIHHHHHHMSKLLMIGTGPVAIQLANICYLKSDYEIDMVGRASTSEKSKRLYQAYKKEKQFEVKIQNEAHQHLEGKFEINRLYKDVKNVKGEYETVVMACTADAYYDTLQQLSLETLQSVKHVILISPTFGSQMIVEQFMSKFSQDIEVISFSTYLGDTRIVDKEAPNHVLTTGVKKKLYMGSTHSNSTMCQRISALAEQLKIQLEVVESPLHAETRNSSLYVHPPLFMNDFSLKAIFEGTDVPVYVYKLFPEGPITMTLIREMRLMWKEMMAILQAFRVPSVNLLQFMVKENYPVRPETLDEGDIEHFEILPDILQEYLLYVRYTAILIDPFSQPDENGHYFDFSAVPFKQVYKNEQDVVQIPRMPSEDYYRTAMIQHIGKMLGIKTPMIDQFLTRYEASCQAYKDMHQDQQLSSQFNTNLFEGDKALVTKFLEINRTLS | not soluble |
| MGSDKIHHHHHHMSKTKEQVVELAQKHGITIQEGSLILNESGLDFQVVFALDVNGKRWVLRLPRREDVVPSTAKEKKTLELIAPHLSVQVPNWEVYSVEMIAYKQLKGVPAATIDHGKKAYVWEMDHTNVSDRFIDTLASGMASLHQIKQDEARRAGVPAEQATEARERMSVRMEKVKSEFGVSEPLWARWQKWLHHDALWPAETGLVHGDLHAGHILIGEQTEVTGFIDWTEAQVTDLSEDFVPHYRIFGEAALNRLIAAYEEAGGYVWPSMKEHVIEREAAFPVAIAEFALKSGIGEYKRMAKEVLGVAE | not soluble |
| MGSDKIHHHHHHMSLLSDEEVNSLSIQRMIFHVVDPALENPTFLAEVNPPQCVDFFVERVKETLKGSAYEFVPGAGIPNLLHRALPGPDGKDDFITVSHALAERFKDKVKQDKRLAPGVLMLFALKTNGNNQLVAVIKYEHQQVVSYSYVKDTNGSPVLDADGNPVPDLKTLVETFTKDRKAMQKSAVIRFQNINSSGGGTFSSSAVVIDHSSGRYRDATQHFANFLDIRRALKPSELTKRLEDAAVEAIKAHRSEVPTEIAKAPKRHVRTAMSRLDGFDFEKPEEFLGAVLQGVSPDSKILKTFKSKLASKNISTEAFKFEGATPPPAEYRRVVTNEGVTLLFSAGHEEKKNVEIQDEENGGVKITIRTTGLERNDELEKMPRLPD | not soluble |
| MGSDKIHHHHHHMSLLSVSDVGKAYKTYRSELQRIAHWFFLPTKASSEHWVLKHINFAIEPGEAIGIIGQNGAGKSTLLKMITGTLQPTQGRVQVNGRIAAILELGMGFNPELSGRQNVYHAAGLMGFDVQQINDVIDDIEAFAEIGEYFDEAVRTYSSGMQMRVAFAVATAFRPEILIVDEALSVGDSYFQHKSFERIREFQRLGTSLLIVSHDRGAIQSLCSRALLLENGSIIKDGPPEQVMDYYNALIAEKENSTVQVKQLADGTVQTQSGSGEATIGTVALYDMQGTPVEFVAVGDKVTLSVQVEVHAPIPELVVGYVIKDRLGQHVFGTNTHHLGKAQKALETGEKLEYRFDFEMNLGPGSYSVAVALHANEVHIGSNYEWRDLALVFNVVNTSKPQFVGMAWVPTAVECIR | not soluble |
| MGSDKIHHHHHHMSLLVKAYRYGYTIARVTPASACWRYVGFAAYRLGTAEVVHVHEPSREVCIVVLTGTVDIETADTTWRSLGSRDSVFEDAAPYAVYLPPNVRATVRACRDAEIGVASAPARGGYPARLIEPASMKRSTRGKGLNTRYVCDILPQTEPAESLLVVEVRTPGGHASSYPPHKHDTDNVPQESSLEETYYHRLDPPQGFAFQRVYTDMRDIDESMAVEDHDVVMVPRGYHPVVVPYGYDSYYLNVMAGGKRVWHFRNDPAHEWIINKDA | not soluble |
| MGSDKIHHHHHHMSLPGSKLEEARRLVNEKQYNEAEQVYLSLLDKDSSQSSAAAGASVDDKRRNEQETSILELGQLYVTMGAKDKLREFIPHSTEYMMQFAKSKTVKVLKTLIEKFEQVPDSLDDQIFVCEKSIEFAKREKRVFLKHSLSIKLATLHYQKKQYKDSLALINDLLREFKKLDDKPSLVDVHLLESKVYHKLRNLAKSKASLTAARTAANSIYCPTQTVAELDLMSGILHCEDKDYKTAFSYFFESFESYHNLTTHNSYEKACQVLKYMLLSKIMLNLIDDVKNILNAKYTKETYQSRGIDAMKAVAEAYNNRSLLDFNTALKQYEKELMGDELTRSHFNALYDTLLESNLCKIIEPFECVEISHISKIIGLDTQQVEGKLSQMILDKIFYGVLDQGNGWLYVYETPNQDATYDSALELVGQLNKVVDQLFEKASVLY | not soluble |
| MGSDKIHHHHHHMSLSSPASRPPLQIRATPVWSPQRDENAEHIVLSPDEQYELGRLGEIIEYRTAKLEILSQSEPADFLYLLIEGVVQACHSLKDGQRQIVAFYWPGDIFGLAEKGLYVNSSEAVTPCSVYRFPFRKLEKFLLEHPRIQQGFFVKAVHEIRTAQRHTITIGQLELPQRLAAFLVDCSEHDRYFDSESSTLSLPMLRYDIADYLGTSVEAVSRTFALLEKNGLVQRKGPRKLEISMKKLIDFSGIA | not soluble |
| MGSDKIHHHHHHMSMAMEHDLLIVGGGPVGATLALALQYKGIDATVLEARAHGAAHHDQRALALSYGSILILERLGLWSGLKPKATAINTIHVSQRGSLGRSLLKAEDHDQPALGYVLSYGDLSAALDDAIRQFPGIQVRYEAEALAIKPGREAAHVEYQYQAQAYSCNSRMTVLADGGRSLADIPGLERETKHYGHDALVSKVSCELPHDNIAYERFTPAGPVALLPNGTRDFSLVWTGKAEEVQALLALDDAAFLEALHTHFGDRVGRFLTVGKRLSFPLKLSYLKPVTAPHLTVIGNAAQTMHPVAGQGFNVGMRDAWELAQLLAQTPSEEWGMDRMMQAYQASRKADTRGGLLFTDFLVNVFSNDIVGLRKIRSLGLGLLDMLPLAKQHLVSKMSFGPRG | not soluble |
| MGSDKIHHHHHHMSNPAYTAMWEKLNLDIPAHDGLLEVLGKFYGDIYMSQQGRLQGMEYLDFVLSEVHGLRIQELQQAKEQGKKIIGTFCVFVPEEITLAAGAVHVGLCSGADAGTEEAEKLVPRNTCALIKSFIGFKLARLCPFTESCDLVVGETTCDGKKKAYEAFAEHVPMHVMEVPNTKSDAARDLFKTEVLRYMQALQQLTGTAITPQALASGIRAVNAKRRALQRLSALRSADPAPISGRDALLINQVSFYDDPERFTHSINALCDQMEERIARKEGIAPAGTPRLLLSGCPMAVPNWKLPYIMESSGAVIVGEESCIGTRNTRDLVDESQETLDGMIDALVDRYMKIDCACFTPNTERLHNVTAMAQELKADGIVHYALKFCQPYAHEAFKIEKAAREKDIPVLSVETDYSMEDAEQLKTRVEAFVEMVRG | not soluble |
| MGSDKIHHHHHHMSNQHSWALSMNQIENCSCSHGCGCQFGGFPTSKDGGCEAILGFEILKGHFNDLDLSGLKMVFAAAWPSAMHEGNGKGALFIDNSANEEQVGALATIMSGQAGGMPVEVLGTLFSEFDGPIMADIKLNRQDYTSTVTIEGIIEVEQEPHINPVTGEINEVHISFPKGGFMWNDGFAGKTKLMKINHGNMAFSYSDTFAANAVVNWPNA | not soluble |
